Key:
[1] = target: T1, recombinant purified mouse CXCL13 (mouse, UniProt O55038 22-109, biotinylated in the ELISA of Example 1.1.A.1 (sites not given); unlabelled in Biacore); test: cell-based or functional assay
T1 sequence: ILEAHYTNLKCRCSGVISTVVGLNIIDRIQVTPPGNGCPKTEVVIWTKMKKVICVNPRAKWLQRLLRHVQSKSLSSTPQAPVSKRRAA

[2] = target: T1, recombinant purified mouse CXCL13; test: ELISA, antibody captured by goat anti-mouse IgG Fc, biotinylated mouse CXCL13 detected with streptavidin-HRP
Procedure: ELISA plates (Corning Costar, Acton, Mass.) were coated with 50 μL/well of 5 μg/ml goat anti-mouse IgG Fc specific (Pierce # 31170, Rockford, Ill.) in Phosphate Buffered Saline (PBS) overnight at 4 degrees Celsius. Plates were washed once with PBS containing 0.05% Tween-20. Plates were blocked by addition of 200 μL/well blocking solution diluted to 2% in PBS (BioRad #170-6404, Hercules, Calif.) for 1 hour at room temperature. Plates were washed once after blocking with PBS containing 0.05% Tween-20.
Fifty microliters per well of mouse sera or hybridoma supernatants diluted in PBS containing 0.1% Bovine Serum Albumin (BSA) (Sigma, St. Louis, Mo.) was added to the ELISA plate prepared as described above and incubated for 1 hour at room temperature. Wells were washed three times with PBS containing 0.05% Tween-20. Fifty microliters of biotinylated recombinant purified mouse CXCL13 diluted to 100 ng/mL in PBS containing 0.1% BSA was added to each well and incubated for 1 hour at room temperature. Plates were washed 3 times with PBS containing 0.05% Tween-20. Streptavidin HRP (Pierce # 21126, Rockland, Ill.) was diluted 1:20000 in PBS containing 0.1% BSA; 50 μL/well was added and the plates incubated for 1 hour at room temperature. Plates were washed 3 times with PBS containing 0.05% Tween-20. Fifty microliters of TMB solution (Sigma # T0440, St. Louis, Mo.) was added to each well and incubated for 10 minutes at room temperature. The reaction was stopped by addition of 1N sulphuric acid. Plates were read spectrophotmetrically at a wavelength of 450 nm.

[3] = target: T1, recombinant purified mouse CXCL13; test: SPR (Biacore), antibody captured by goat anti-mouse IgG Fc, mouse CXCL13 injected at 0.78-50 nM, 25 C
Procedure: Binding of antibodies to recombinant purified mouse CXCL13 were determined by surface plasmon resonance-based measurements with a Biacore® 2000 and 3000 instruments (Biacore® AB, Uppsala, Sweden) using running HBS-EP (10 mM HEPES pH 7.4, 150 mM NaCl, 3 mM EDTA, and 0.015% surfactant P20) at 25° C. Experimental data from all kinetic rate determinations of the antibody-antigen reaction were analyzed using Biaevaluation software version 4.0.1.
Mouse Anti Mouse CXCL13 antibodies to be captured as a ligand on the carboxymethyl dextran matrix were diluted in HBS-EP with 0.015% P20 at a concentration of 5-μg/mL. 50-100 μL aliquots were injected over the covalently coupled goat anti-mouse IgG Fc polyclonal antibody biosensor matrices at a flow rate of 25-50 μL/min. The net difference in the baseline signal and the signal after the completion of antibody injection was taken to represent the amount of bound Mouse Anti Mouse CXL13 antibody. Biosensor matrices were typically regenerated with subsequent 25 μL injections of 10 mM Glycine (pH 1.5) before the injection of the next sample. Glycine treatment disrupts the association of non-covalently bound proteins thus Anti CXCL13 antibody-mouse CXCL13 complex dissociates and washes off. The anti-mouse IgG antibody immobilized surfaces were completely regenerated. Aliquots of mouse CXCL13 antigen were injected at a flow rate of 25-50 μL/min over Anti CXCL13 purified monoclonal antibodies captured on the biosensor chips. The concentrations of mouse CXCL13 was ranging between 0.78-50 nM. HBS-EP with 0.015% P20 was flowed through each flow cell in between various cycles of antigens and also immediately before and after the end of kinetic analysis. The signal stabilized 120-180 seconds after the completion of the injection cycle. The net difference in signal between the baseline and the point corresponding to approximately 30 seconds after the completion of antigen injections was taken to represent the amount of antigen bound. The response was measured in resonance units (RU) representing the mass of bound CXCL13 antigen. CXCL13 antigen was also simultaneously injected over the goat anti mouse IgG Fc or goat IgG reference and reaction CM4 surface to record any nonspecific binding background.

B1: XW25-5D11-4F3-3D11 (antibody, V domains shown)
VH: EVQVQQSGAELVRPGSSVKMSCKTSGYTFTNYGIIWVKQRPGQGLEWIGYIYIGKGYTEYNEKFKGKATLTSDTSSSTVYMQLSSLTSEDSAIYFCARGAHYYGNAMDYWDQGTSVTVSS
VL: DIQMTQTTSSLSASLGDRVTISCRSSQDISNFLNWYQQRPDGTVKLLIYYTSRLHSGVPSRFSGSGSGTDYSLTISNLEQEDIATYFCQQGDTLPWTFGGGTKLEIKR
notes: Mouse anti-mouse CXCL13 monoclonal antibody purified from hybridoma
- Average Kb (nM) Chemotaxis Assay [1]: 18.9 nM
- EC50 [2]: 0.03 nM
- kon [3]: 1e+06 M⁻¹ s⁻¹

B2: XW25-2C4-4H8 (antibody, V domains shown)
VH: QVQLQQPGTELVKPGASVKLSCKASGYNFATYWMHWVKQRPGQGLEWIGNINPSDGGTNFNEKFNNKATLTVDKSSSTAYMQLSSLTSEDSAVYYCAKWGGHYVLYWYFDVWGTGTTVTVSS
VL: DIVLTQSPATLSVTPGDSVSLSCRASQSISSNLHWYQQKSHESPRLLITYASQSISGIPSRFSGSGSGTDFTLSINSVESEDVGVYFCQQSDSWPLTFGAGTKLELKR
notes: as for B1
- Average Kb (nM) Chemotaxis Assay [1]: 23 nM
- EC50 [2]: 0.02 nM
- Kd [3]: 0.013 nM
- koff [3]: 3.6e-05 s⁻¹
- kon [3]: 2.7e+06 M⁻¹ s⁻¹

B3: XW25-4F2-5D2 (antibody, V domains shown)
VH: QVQLQQPGTELVKPGASVKLSCKASGYNFPTYWMHWVKQRPGQGLEWIGNINPSDGGTNFNEKFNNKATLTVDKSSSTAYMQLSSLTSEDSAVYYCAKWGGHYVLYWYFDVWGTGTTVTVSS
VL: DIVLTQSPATLSVTPGDSVSLSCRASQSISNNLHWYQQKSHESPRLLITYASQSISGIPSRFSGSGSGTDFTLSINSVESEDVGVYFCQQSDSWPLTFGAGTKLELKR
notes: Mouse anti-mouse CXCL13 monoclonal antibody from hybridoma
- Average Kb (nM) Chemotaxis Assay [1]: 16 nM
- EC50 [2]: 0.02 nM

B4: XW25-7C7-5E5 (antibody, V domains shown)
VH: QVQLQQPGTELVKPGASVKLSCKASGYNFATYWMHWVKQRPGQGLEWIGNINPSDGGTNFNEKFNNKATLTVDKSSSTAYMHLSSLTSEDSAVYYCAKWGGHYVLYWYFDVWGTGTTVTVSS
VL: DIVLTQSPATLSVTPGDSVSLSCRASQNINNNLHWYQQKSHESPRLLITYTSQSISGIPSRFSGSGSGTDFTLSINSVESEDVGVYFCQQSDSWPLTFGAGTKLELKR
notes: as for B3
- EC50 [2]: 0.02 nM

B5: XW25-8H6-4F9 (antibody, V domains shown)
VH: QVQLQQPGTELVKPGASVKLSCKASGYNFATYWMHWVKQRPGQGLEWIGNINPSDGGTNYNEKFNNKATLTVDKSSSTAYMQLSSLTSEDSAVYYCAKWGGHYVLYWYFDVWGTGTTVTVSS
VL: DIVLTQSPATLSVTPGDSVSLSCRASQSINNNLHWYQQESHESPRLLITYASQSISGIPSRFSGSGSGTDFTLSINSVESEDFGVYFCQQSNSWPLTFGAGTKLELKR
notes: as for B3
- EC50 [2]: 0.03 nM

B6: XW25-9C10-4B11 (antibody, V domains shown)
VH: QVQLQQPGTELVKPGASVKLSCKASGYNFATYWMHWVKQRPGQGLEWIGNINPSDGGTNFNEKFNSKATLTVDKSSSTAYMQLSSLTSEDSAVYYCAKWGGHYVLYWYFDVWGTGTTVTVSS
VL: DIVLTQSPATLSVTPGDSVSLSCRASQSISSNLHWYQQKSHESPRLLITYASQSISGIPSRFSGSGSGTDFTLSINSVESEDVGVYFCQQSDSWPLTFGAGTKLELKR
notes: as for B3
- EC50 [2]: 0.01 nM

B7: XW25-6A2-2F10 (antibody, V domains shown)
VH: QVQLQQPGTELVKPGASVKLSCKASGYNFATYWVHWVKQRPGQGLEWIGNINPSDGGTSYNEKFSKKATLTVDKSSSTAYMELSSLTSEDSAVYYCAKWGGHYVLYWSFDVWGTGTTVTVSS
VL: DIVLTQSPATLSVTPGDSVSLSCRASQSISNNLHWYQQRSHESPRLIITHVSQSISGIPSRFSGSGSGTDFIFSINSVESEDFGVYFCQQSNSWPLTFGAGTKLELKR
notes: as for B1
- Average Kb (nM) Chemotaxis Assay [1]: 8.12 nM
- EC50 [2]: 0.02 nM
- Kd [3]: 0.002 nM
- koff [3]: 2.7e-06 s⁻¹
- kon [3]: 1.6e+06 M⁻¹ s⁻¹

B8: XW25-3B5-3F4 (antibody, V domains shown)
VH: QVQLQQPGTELVKPGTSVKLSCKASGYTFTSYWMHWVKQRPGQGLEWIGNINPSDGGIKYNEKFKSKATLTVDKSSSTAYMELSSLTSEDSAVYYCAKWGGHYVLYWYFDVWGTGTTVTVSS
VL: DIVLTQSPATLSVTPGDSVSLSCRASQSISNNLHWYQQKSHESPRLLINYASQSISGIPSRFSGSGSGTDFTLSINSVETEDFGMYFCQQSNSWPLTFGAGTKLELKR
notes: as for B3
- EC50 [2]: 0.04 nM

Reference: patent US20080227704A1 (published 2008)
